Data reported in US11389568B2, “Tyrosine peptide cross-linked biocompatible hydrogel and method of production” (SEOUL NATIONAL UNIVERSITY R&DB FOUNDATION, priority 2016, dated 2022).
Ends that are not written are not given here.

Columns and labels:
fibroblasts = test: Cytotoxicity test by MTT assay; assay type: cell-based; conditions: riboflavin 0.1 μM-10 mM, YC7 0.1 μM-1 mM, 24 hr at 37° C.
Method: To investigate the biocompatibility of the hydrogels, fibroblasts were used in a cytotoxicity test. Fibroblasts were seeded with the density of 4×10^4/well in 24 well plates. […] Finally, cell toxicity was evaluated by MTT assay. Fibroblasts were grown with the density of 1×10^5/well in 12 well dishes to test their proliferation in different hydrogels. The grown cells area was scratched using pipette tips to create a wound-like environment and the hydrogels were added to 12 transwells, which were then placed in the dishes where cells had been grown. The proliferation effect of cells was evaluated depending on the degree of cell filling in the scratches.

[1] = Storage modulus (G′) by rheometer; assay type: physicochemical; conditions: for storage modulus (G′), comparison in words: at 30 rad/s
Method: The crosslinking time and storage modulus (G′) were analyzed using a rheometer. Hydrogel samples with 20 mm diameter and 5 mm thickness were prepared. The crosslinking time was measured over time at an oscillation frequency of 1 Hz and a stress sweep of 10 Pa. The storage modulus was measured at an oscillation frequency of 1 Hz and a stress sweep of 1-100 Pa. All measurements were performed in triplicate and averaged.
Specifically, the storage modulus G′ was obtained by oscillatory shear measurements at room temperature using a constant stress rheometer (Discovery Hybrid Rheometer-3 from TA Instruments, USA). For the measurements, hydrogel samples with a defined shape of 20 mm diameter and 5 mm thickness were prepared. The cured hydrogel was placed on a lower rheometer stage, and an upper rheometer fixture (diameter 20 mm) was lowered until it made contact with the top surface of the sample. The value of G′ was then measured at oscillation frequency 1 Hz in a stress sweep test of 1-100 Pa. This stress sweep was performed in order to determine the limit of the linear viscoelastic range. All the G′ measurements were obtained in triplicate. Error bars in figures represent the standard deviation from the mean value (see FIGS. 7 and 9).
Specifically, it is well known that the mechanical properties of hydrogels are closely related to the crosslinking density. The storage modulus (G′) measured by rheological analysis is a reliable value representing the rigidity of the subjected hydrogel. The G′ of HA-Ty hydrogel without any peptide addition was 156.6 Pa at a strain of 1% at 30 rad/s (see FIG. 10).

[2] = Swelling test of lyophilized hydrogels in distilled water; assay type: physicochemical; conditions: distilled water at 25° C.
Method: Swelling and degradation tests on the hydrogels were conducted by the following procedures. First, HA hydrogels were photocrosslinked with different peptide sequences (YYACAYY (SEQ ID: 4), di-YYACAYY (SEQ ID: 5), YYAYY (SEQ ID: 7), YYCYY (SEQ ID; 8), and YYAHAYY (SEQ ID: 6), 0.1 mM each). Swelling experiments were performed by measuring the increase in weight of the lyophilized hydrogels. Lyophilized hydrogels were placed in 1 mL distilled water at 25° C. The swelling ratio (S %) of hydrogels in distilled water was calculated using S %=[(Wt−W0]/W0)]100, where Wt is the weight of the swollen hydrogel at time t, and W0 is the weight of the dry gel at time 0. Degradation tests were performed by measuring the weights of hydrogels in PBS containing 0.01 mg/mL hyaluronidase at different time points.

[3] = Solubility of the peptide in hydrogel preparation; assay type: physicochemical

Row | Substance | storage modulus (G′), comparison in words [1] | also measured
1 | YYACAYY [YC7, YYACAYY] | – | cytotoxicity (fibroblasts): no cytotoxicity
2 | YYAHAYY [YH7, tyrosine-based peptide; the code also labels the HA-Ty hydrogel photocrosslinked with it] | almost the same G′ as HA-Ty | –
3 | YYAYY [YA5, tyrosine-based peptide; the code also labels the HA-Ty hydrogel photocrosslinked with it] | higher than that of YH7 | –
4 | YYCYY [YC5, tyrosine-based peptide; the code also labels the HA-Ty hydrogel photocrosslinked with it] | higher than that of YH7 | –
5 | di-YYACAYY (YYACAYYYYACAYY; cysteine pairing not given here; also: dimer of YYACAYY) [DYC7, tyrosine-based peptide; the code also labels the HA-Ty hydrogel photocrosslinked with it] | highest G′ | storage modulus (G′) ([1]; strain of 1% at 30 rad/s, peptide 0.1 mM): 297.6 Pa; swelling ratio, comparison in words [2]: slightly higher than that of YC7; solubility [3]: partial insolubility
